Measured values: US20110033389A1 (published 2011)

Tests used:
Assay in all cases: cell-based or functional assay
[1] = molecular target: T1, glycoprotein D of Herpes simplex virus, on HSV-1 virus (Herpes simplex virus (HSV-1 virus in …, UniProt A1Z0Q5 26-394))
[2] = molecular target: T1, glycoprotein D of Herpes simplex virus, …; remark: listed apart in the source
[3] = molecular target: T1, glycoprotein D of Herpes simplex virus, …; remark: listed apart in the source

Row | Binder | Plaque Reduction Rate Percentage (Average plaque number per plate) at 0.2 µg/ml; virus prevention assay (cells pre-treated with antibody, washed, then HSV-1) [1] [%] | Plaque Reduction Rate Percentage (Average plaque number per plate) at 0.6 µg/ml; virus prevention assay (cells pre-treated with antibody, washed, then HSV-1) [1] [%] | Plaque Reduction Rate Percentage (Average plaque number per plate) at 1.9 µg/ml; virus prevention assay (cells pre-treated with antibody, washed, then HSV-1) [1] [%] | Plaque Reduction Rate Percentage (Average plaque number per plate) at 5.6 µg/ml; virus prevention assay (cells pre-treated with antibody, washed, then HSV-1) [1] [%] | Plaque Reduction Rate Percentage (Average plaque number per plate) at 16.7 µg/ml; virus prevention assay (cells pre-treated with antibody, washed, then HSV-1) [1] [%] | Plaque Reduction Rate Percentage (Average plaque number per plate) at 50 µg/ml; virus prevention assay (cells pre-treated with antibody, washed, then HSV-1) [1] [%] | ED50 against HSV-1 infection; virus prevention assay (cells pre-treated with antibody, washed, then HSV-1) [2] [µg/mL] | Plaque Reduction Rate Percentage (Average plaque number per plate) at 0.012 µg/ml; HSV-1 neutralization in solution [3] [%] | Plaque Reduction Rate Percentage (Average plaque number per plate) at 0.037 µg/ml; HSV-1 neutralization in solution [3] [%] | Plaque Reduction Rate Percentage (Average plaque number per plate) at 0.11 µg/ml; HSV-1 neutralization in solution [3] [%] | Plaque Reduction Rate Percentage (Average plaque number per plate) at 0.33 µg/ml; HSV-1 neutralization in solution [3] [%] | Plaque Reduction Rate Percentage (Average plaque number per plate) at 1 µg/ml; HSV-1 neutralization in solution [3] [%] | Plaque Reduction Rate Percentage (Average plaque number per plate) at 3 µg/ml; HSV-1 neutralization in solution [3] [%] | ED50; plaque reduction assay, HSV-1 neutralization in solution [2] [µg/mL]
1 | AC8FabTAT (Fab, V domains shown) VH: QVQLVQSGAEVKKPGSSVKVSCKASGGSFSSYAINWVRQAPGQGLEWMGGLMPIFGTTNYAQKFQDRLTITADVSTSTAYMQLSGLTYEDTAMYYCARVAYMLEPTVTAGGLDVWGQGTTVTVAS VL: not shown | 0 | 0 | 0 | 13 | 37 | 68 | 27 | 0 | 14 | 33 | 77 | 100 | 100 | 
2 | AC8 Fab (Fab, V domains shown) VH: QVQLVQSGAEVKKPGSSVKVSCKASGGSFSSYAINWVRQAPGQGLEWMGGLMPIFGTTNYAQKFQDRLTITADVSTSTAYMQLSGLTYEDTAMYYCARVAYMLEPTVTAGGLDVWGQGTTVTVAS VL: not shown |  |  |  |  |  |  |  |  |  |  |  |  |  | ~0.2
